One data set relates to CP4EPSPS polynucleotide. Put plainly: PCR detection of artificial CP4EPSPS polynucleotides in transgenic plants. More on the design: species or system corn. The following applies: amplicon size obtained with the primer pair specific for the gene; second figure in brackets. The text has this: A DNA detection method (polymerase chain reaction, PCR) is designed to detect the artificial CP4EPSPS polynucleotides in transgenic plants. The unique sets of DNA primers shown in Table 26 are designed to amplify a specific CP4EPSPS polynucleotide and to provide distinctly sized amplicons. The amplicons differ sufficiently in polynucleotide length among the various CP4EPSPS polynucleotides to make easy separation of the amplicons by standard agarose gel electrophoresis. The presence of more than one of the artificial polynucleotides can be detected in a plant by using a multiplex PCR method.
DNA primer pairs (Table 26) are used to produce an amplicon diagnostic for a specified CP4EPSPS polynucleotide contained in a transgenic plant. These primer pairs include, but are not limited to SEQ ID NO:24 and SEQ ID NO:25 for the CP4EPSPS_AT polynucleotide; SEQ ID NO:26 and SEQ ID NO:27 for the CP4EPSPS_ZM; SEQ ID NO:28 and SEQ ID NO:29 for CP4EPSPS_Nat and SEQ ID NO:30 and SEQ ID NO:31 CP4EPSPS_Syn polynucleotide molecule. In addition to these primer pairs, any primer pair derived from SEQ ID NO:17 or SEQ ID NO:18 that when used in a DNA amplification reaction produces a DNA amplicon diagnostic for the respective CP4EPSPS polynucleotide is an aspect of the present invention. […]

A further data set deals with Wheat plants. Put plainly: CP4EPSPS enzyme expression in wheat leaves by ELISA. In kind it is in vivo. From the text: Wheat plants transformed with the new CP4EPSPS polynucleotides are compared for transformation efficiency and CP4EPSPS enzyme expression determined by ELISA (Table 25). […] The average expression of CP4EPSPS in leaves from wheat plants containing the CP4EPSPS_ZM polynucleotide is about 64% of that found in glyphosate resistant wheat that contains a double cassette construct, pMON30139: P-e35S/1-Hsp70/CP4EPSPS_Nat and P-OsAct1/I-OsAct1/CP4EPSPS_Nat (WO/0022704).

The test system of data set [1] is transgenic soybean plants. Put plainly: CP4EPSPS enzyme level in transgenic soybean plants. It counts as in vivo. How it is done: Constructs containing the artificial CP4EPSPS polynucleotides, CP4EPSPS_AT and CP4EPSPS_ZM are evaluated in soybean (Table 22). The plasmid constructs all contain the P-FMV promoter to drive expression of the new CP4EPSPS polynucleotides and are compared to the P-FMV/CP4EPSPS_Syn contained in pMON20999. About 25 to 30 transgenic soybean plants are produced for each construct. The transformation efficiency and CP4EPSPS enzyme, levels are measured.

Data set [2] concerns transgenic cotton plants. Put plainly: CP4EPSPS ELISA, enzyme level in R0 cotton lines. Particulars: relative to pMON20999 expression cassette. It counts as in vivo. The method, then:
(§1) Three plasmid constructs are evaluated in transgenic cotton plants (Table 21). The control construct (pMON20999) contains P-FMV/CP4EPSPS_Syn this expression cassette is contained in the commercially available glyphosate tolerant cotton line 1445 (Roundup Ready® cotton, Monsanto Co., St. Louis, Mo.). The plasmid constructs, pMON59313 and pMON59396 containing the CP4EPSPS_AT and CP4EPSPS_ZM polynucleotides, respectively, are assayed for transformation efficiency and CP4EPSPS enzyme levels relative to the commercial glyphosate tolerant expression cassette. About fifty transgenic cotton lines are evaluated for each construct.
For orientation: In an ELISA, binding on a coated surface is turned into a signal by an enzyme label.

Data set [3] relates to transgenic cotton plants. Kind of data set: Cotton transformation (transformation efficiency, insert number). It counts as cell-based. Particulars: relative to pMON20999. How it is done:
as §1

B1: CP4EPSPS_ZM: Artificial polynucleotide encoding the CP4EPSPS protein using the Zea mays codon usage table (nucleic acid, listed as Agrobacterium tumefaciens)
DNA: ATGCTACACGGTGCAAGCAGCCGGCCGGCAACCGCTCGCAAATCTTCCGGCCTTTCGGGAACGGTCAGGATTCCGGGCGATAAGTCCATATCCCACCGGTCGTTCATGTTCGGCGGTCTTGCCAGCGGTGAGACGCGCATCACGGGCCTGCTTGAAGGTGAGGACGTGATCAATACCGGGAAGGCCATGCAGGCTATGGGAGCGCGTATCCGCAAGGAAGGTGACACATGGATCATTGACGGCGTTGGGAATGGCGGTCTGCTCGCCCCTGAGGCCCCTCTCGACTTCGGCAATGCGGCGACGGGCTGCAGGCTCACTATGGGACTGGTCGGGGTGTACGACTTCGATAGCACGTTCATCGGAGACGCCTCGCTCACAAAGCGCCCAATGGGCCGCGTTCTGAACCCGTTGCGCGAGATGGGCGTACAGGTCAAATCCGAGGATGGTGACCGTTTGCCCGTTACGCTGCGCGGGCCGAAGACGCCTACCCCGATTACCTACCGCGTGCCAATGGCATCCGCCCAGGTCAAGTCAGCCGTGCTCCTCGCCGGACTGAACACTCCGGGCATCACCACGGTGATCGAGCCCATCATGACCAGGGATCATACCGAAAAGATGCTTCAGGGGTTTGGCGCCAACCTGACGGTCGAGACGGACGCTGACGGCGTCAGGACCATCCGCCTTGAGGGCAGGGGTAAACTGACTGGCCAAGTCATCGATGTTCCGGGAGACCCGTCGTCCACGGCCTTCCCGTTGGTTGCGGCGCTGCTCGTGCCGGGGAGTGACGTGACCATCCTGAACGTCCTCATGAACCCGACCAGGACCGGCCTGATCCTCACGCTTCAGGAGATGGGAGCCGACATCGAGGTGATCAACCCGCGCCTGGCAGGCGGTGAAGACGTTGCGGATCTGCGCGTGCGCTCCTCTACCCTGAAGGGCGTGACGGTCCCGGAAGATCGCGCGCCGTCCATGATAGACGAGTATCCTATTCTGGCCGTCGCCGCTGCGTTCGCCGAAGGGGCCACGGTCATGAACGGTCTTGAGGAACTCCGCGTGAAGGAATCGGATCGCCTGTCGGCGGTGGCCAATGGCCTGAAGCTCAACGGTGTTGACTGCGACGAGGGTGAGACCTCACTCGTGGTCCGTGGCCGGCCTGATGGCAAGGGCCTCGGCAACGCCAGTGGAGCGGCCGTCGCCACGCACCTCGATCATCGCATCGCGATGTCCTTCTTGGTGATGGGTCTCGTCTCAGAGAACCCGGTGACCGTCGATGACGCCACGATGATAGCGACGAGCTTCCCAGAGTTCATGGATCTGATGGCGGGCCTCGGGGCCAAGATCGAACTGTCTGACACGAAGGCCGCTTGA
As to B1, in the data set with CP4EPSPS polynucleotide, the “PCR product (bps)” value is reported as 595 (600) bps. Besides, the “CP4EPSPS enzyme expression relative to CP4EPSPS_AT” value with Wheat plants (wheat) was “at least seven times higher”. The “CP4 Exp. (%) CP4EPSPS expression” value in the data set on Wheat plants (wheat leaves, relative to pMON30139 double cassette wheat, ELISA) is “about 64%”. Besides, the “expression level of CP4EPSPS protein (in words)” value in data set [1] is “surprisingly high expression level”.

B2: CP4EPSPS_AT: Artificial polynucleotide encoding the CP4EPSPS protein using the Arabidopsis codon usage table (nucleic acid, listed as Agrobacterium tumefaciens)
DNA: ATGCTTCATGGAGCTTCATCTAGGCCAGCTACTGCCAGGAAGTCTAGCGGGCTCAGTGGCACCGTGCGCATCCCTGGCGATAAAAGTATTTCACACAGGAGCTTCATGTTCGGAGGACTTGCTAGTGGAGAGACGAGAATCACTGGTTTGCTTGAGGGCGAAGATGTTATCAACACCGGTAAGGCGATGCAAGCAATGGGTGCCAGAATCCGAAAAGAGGGCGATACGTGGATCATCGACGGTGTTGGTAACGGAGGATTGCTCGCTCCCGAAGCGCCACTTGACTTTGGGAACGCAGCTACGGGGTGCCGTCTTACTATGGGACTGGTAGGCGTGTATGACTTTGACTCTACCTTCATCGGTGACGCGAGCCTCACTAAGAGACCAATGGGACGAGTGCTGAATCCCCTGAGGGAGATGGGTGTCCAGGTGAAATCTGAGGATGGTGATCGTCTTCCGGTTACTCTGCGAGGCCCCAAGACCCCCACGCCAATCACGTACAGGGTTCCGATGGCGTCAGCACAGGTCAAGTCAGCGGTACTCCTGGCGGGCCTCAACACACCTGGAATCACAACCGTGATTGAACCCATCATGACTAGAGACCACACGGAGAAGATGTTGCAGGGTTTCGGCGCTAATCTAACGGTCGAAACCGACGCCGACGGCGTGAGGACAATCCGCTTGGAGGGCAGAGGTAAACTGACTGGCCAAGTCATCGATGTGCCTGGAGATCCCTCGTCCACAGCGTTTCCCCTCGTAGCTGCGTTGCTCGTCCCTGGATCTGATGTGACGATCCTGAATGTCCTCATGAATCCAACTAGAACCGGCCTCATCCTCACATTGCAGGAGATGGGTGCTGACATCGAGGTTATCAATCCTAGGTTGGCAGGTGGAGAGGATGTGGCCGATCTGCGCGTGCGTTCTAGTACACTCAAAGGCGTGACCGTCCCTGAGGATCGCGCTCCATCCATGATCGACGAGTACCCCATTCTCGCCGTTGCTGCTGCGTTTGCCGAGGGCGCAACTGTAATGAACGGCCTTGAGGAGTTGAGGGTTAAGGAGAGTGACAGGCTGTCCGCGGTGGCGAATGGCCTGAAGCTAAACGGCGTGGACTGCGACGAAGGTGAAACGTCCCTTGTAGTCCGTGGTCGCCCAGACGGGAAGGGGTTGGGGAATGCTTCGGGAGCTGCTGTGGCGACGCACCTTGATCATAGAATCGCCATGTCATTTCTGGTGATGGGACTTGTCTCCGAGAATCCGGTGACCGTTGACGATGCTACCATGATCGCCACCTCCTTTCCTGAGTTCATGGACCTCATGGCAGGCTTGGGGGCCAAGATCGAGCTGTCTGATACTAAGGCCGCTTGA
Take B2: the “expression level of the CP4EPSPS enzyme (in words)” value in the data set on transgenic cotton plants [2] is recorded as “increase in expression level”. Moreover, the “percentage of plants with a single insert” value in the data set on transgenic cotton plants [3] was “higher percentage of plants with a single insert”. In the data set with CP4EPSPS polynucleotide, the “PCR product (bps)” value is given as 938 (940) bps.

Values taken from patent US8466270B2, “Methods for using artificial polynucleotides and compositions thereof to reduce transgene silencing” (Monsanto Technology LLC, priority 2002, dated 2013).
